For one substance, increase in SNAPc recruitment to GST-TBP on addition of TFIIA results are on record in paper PMC6004067.

For the experiment, the target named is GST-TBP, GST-tagged full-length human TBP (human) (UniProt P20226). Kind of experiment: pull-down; GST pull-down: GST-TBP, GST-TFIIB or TBP fragments on glutathione beads; analytes in buffer B2 (150 mM NaCl), 1 h at 4°C, four washes, Western blot. A general note: A western blot detects proteins with antibodies after separation by electrophoresis.
Sequence of GST-TBP, GST-tagged full-length human TBP (human) (P20226 whole entry, the tested form may be a part): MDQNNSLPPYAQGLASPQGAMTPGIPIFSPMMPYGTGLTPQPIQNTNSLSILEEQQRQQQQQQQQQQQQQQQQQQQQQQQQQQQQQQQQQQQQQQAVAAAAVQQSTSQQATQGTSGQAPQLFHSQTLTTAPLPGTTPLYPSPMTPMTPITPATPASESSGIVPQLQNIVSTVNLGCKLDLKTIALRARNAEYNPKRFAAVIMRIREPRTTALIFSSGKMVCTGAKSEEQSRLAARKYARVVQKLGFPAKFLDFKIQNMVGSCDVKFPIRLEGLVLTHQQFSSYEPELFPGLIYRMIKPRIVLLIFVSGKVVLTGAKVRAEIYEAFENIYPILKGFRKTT

As to “SNAP complex (SNAPc) (from UniProt Q5SXM2 1-1469; Q92966 1-411; Q13487 1-334; Q16533 1-368; O75971 1-98)”, the increase in SNAPc recruitment to GST-TBP on addition of TFIIA stood at 60%.
